Legend:
[1] = molecular target: mouse homodimeric minimal factor H (mHDM-FH, mFH^1–5^18–20^R1–2) (mouse) (UniProt P06909); experiment: SEC; analytical size exclusion gel filtration; elution volume compared with mFLFH and mini-mFH
WT murine C3b (mouse) [2] = molecular target: WT murine C3b (mouse)
WT murine C3b (mouse) [3] = experiment: SPR; WT murine C3b amine coupled on a CM5 chip; 2-fold dilution series of the FH protein flowed over in duplicate, 30 µl/min; HBST (10 mM HEPES, 150 mM NaCl, 0.005% Tween 20, pH 7.4); steady-state model

| Substance | stoichiometry N [1] | IC50 of protection of sheep erythrocytes from lysis by mouse serum (haemolysis assay) (WT murine C3b (mouse) [2]) [µM] | Kd (WT murine C3b (mouse) [3]) [µM] |
| --- | --- | --- | --- |
| mouse homodimeric minimal factor H (mHDM-FH, mFH^1–5^18–20^R1–2) (from UniProt P06909 19-321; P06909 1050-1234; Q61406 24-152) | 2 | 0.008 | 0.5 |
| Mouse full length Factor H (mFLFH) (from UniProt P06909 19-1234) (natural protein) | – | – | 1.7 |

From article PMC8696033
